Data on 2 variants can be found in IntAct's records for PubMed 16498409.

To fix the notation:
B1: ADP-ribosylation factor 1 (Saccharomyces cerevisiae), P11076 (parent)
chain: MGLFASKLFSNLFGNKEMRILMVGLDGAGKTTVLYKLKLGEVITTIPTIGFNVETVQYKNISFTVWDVGGQDRIRSLWRHYYRNTEGVIFVVDSNDRSRIGEAREVMQRMLNEDELRNAAWLVFANKQDLPEAMSAAEITEKLGLHSIRNRPWFIQATCATSGEGLYEGLEWLSNSLKNST
partner: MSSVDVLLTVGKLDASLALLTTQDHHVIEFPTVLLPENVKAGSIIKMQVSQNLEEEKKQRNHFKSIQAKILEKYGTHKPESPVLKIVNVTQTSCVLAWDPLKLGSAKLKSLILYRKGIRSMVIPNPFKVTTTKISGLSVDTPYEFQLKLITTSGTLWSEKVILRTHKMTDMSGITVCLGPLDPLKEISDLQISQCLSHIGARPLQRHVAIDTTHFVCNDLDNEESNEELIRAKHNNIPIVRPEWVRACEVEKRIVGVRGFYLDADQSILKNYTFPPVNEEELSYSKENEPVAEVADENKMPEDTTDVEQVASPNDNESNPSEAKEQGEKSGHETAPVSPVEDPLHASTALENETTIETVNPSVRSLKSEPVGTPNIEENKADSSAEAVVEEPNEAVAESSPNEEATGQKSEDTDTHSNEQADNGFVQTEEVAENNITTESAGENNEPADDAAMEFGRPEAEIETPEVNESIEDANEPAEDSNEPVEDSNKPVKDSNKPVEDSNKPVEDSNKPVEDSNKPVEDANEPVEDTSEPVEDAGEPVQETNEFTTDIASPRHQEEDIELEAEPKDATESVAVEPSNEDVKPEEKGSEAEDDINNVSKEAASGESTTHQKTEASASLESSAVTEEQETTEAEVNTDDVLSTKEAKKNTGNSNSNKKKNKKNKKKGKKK
B2: ADP-ribosylation factor 1 (Saccharomyces cerevisiae), P11076 (parent)
chain: B1 chain

The first assay covers variants of B1. The following applies: with chs5_yeast CHS5, Q12114.
As to MGLFASKLFSNLFGNKEMRILMVGLDGAGKTTVLYKLKLGEVITTIPTIGFNVETVQYKNISFTVWDVGGLDRIRSLWRHYYRNTEGVIFVVDSNDRSRIGEAREVMQRMLNEDELRNAAWLVFANKQDLPEAMSAAEITEKLGLHSIRNRPWFIQATCATSGEGLYEGLEWLSNSLKNST [Q71L], the “effect of a mutation on the interaction” value was “increasing interaction”.

Variants of B2 are the subject of the next assay. Conditions: with glo3_yeast GLO3, P38682.
glo3_yeast GLO3, P38682, sequence (P38682 whole entry): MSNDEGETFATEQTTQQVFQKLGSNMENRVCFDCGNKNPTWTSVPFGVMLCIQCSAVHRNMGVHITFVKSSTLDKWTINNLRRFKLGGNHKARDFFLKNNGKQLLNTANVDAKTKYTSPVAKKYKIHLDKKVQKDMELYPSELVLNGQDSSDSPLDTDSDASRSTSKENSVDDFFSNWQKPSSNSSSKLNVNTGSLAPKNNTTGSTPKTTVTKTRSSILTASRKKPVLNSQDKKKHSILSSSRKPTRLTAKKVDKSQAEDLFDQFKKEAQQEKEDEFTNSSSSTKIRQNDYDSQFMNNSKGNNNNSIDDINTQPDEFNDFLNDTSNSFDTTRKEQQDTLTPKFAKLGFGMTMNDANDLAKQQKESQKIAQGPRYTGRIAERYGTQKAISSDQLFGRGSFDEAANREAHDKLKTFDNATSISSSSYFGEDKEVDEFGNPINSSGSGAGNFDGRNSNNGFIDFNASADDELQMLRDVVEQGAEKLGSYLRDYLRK
For the variant MGLFASKLFSNLFGNKEMRILMVGLDGAGKTTVLYKLKLGEVITTIPTIGFNVETVQYKNISFTVWDVGGLDRIRSLWRHYYRNTEGVIFVVDSNDRSRIGEAREVMQRMLNEDELRNAAWLVFANKQDLPEAMSAAEITEKLGLHSIRNRPWFIQATCATSGEGLYEGLEWLSNSLKNST [Q71L], the “effect of a mutation on the interaction” value is given as “increasing interaction”.
